Measured values from paper PMC4141763, “Reciprocal Activating Crosstalk between c-Met and Caveolin 1 Promotes Invasive Phenotype in Hepatocellular Carcinoma” (PLoS ONE, 2014).

Biological target: T1, c-Met, the receptor for Hepatocyte Growth Factor (HGF) (human (endogenous in SNU-449 and …, UniProt P08581 25-1390))
T1 construct: precipitated with agarose-conjugated anti-c-Met antibody sc-161 AC; Endogenous receptor in a lysate; the co-IP blot detects total c-Met; also called c-Met Tyrosine Kinase; source: endogenous, Mahlavu whole cell lysate
Assay: co-IP; SNU-449 whole cell lysates (modified NP-40 buffer) precipitated with agarose-conjugated anti-c-Met antibody (sc-161 AC), blotted for CAV1 and c-Met; serum-starved cells untreated or exposed to HGF (40 ng/mL) for 15, 30 and 60 min; IgG as IP control
Details: partners not purified

T1 sequence (P08581 25-1390): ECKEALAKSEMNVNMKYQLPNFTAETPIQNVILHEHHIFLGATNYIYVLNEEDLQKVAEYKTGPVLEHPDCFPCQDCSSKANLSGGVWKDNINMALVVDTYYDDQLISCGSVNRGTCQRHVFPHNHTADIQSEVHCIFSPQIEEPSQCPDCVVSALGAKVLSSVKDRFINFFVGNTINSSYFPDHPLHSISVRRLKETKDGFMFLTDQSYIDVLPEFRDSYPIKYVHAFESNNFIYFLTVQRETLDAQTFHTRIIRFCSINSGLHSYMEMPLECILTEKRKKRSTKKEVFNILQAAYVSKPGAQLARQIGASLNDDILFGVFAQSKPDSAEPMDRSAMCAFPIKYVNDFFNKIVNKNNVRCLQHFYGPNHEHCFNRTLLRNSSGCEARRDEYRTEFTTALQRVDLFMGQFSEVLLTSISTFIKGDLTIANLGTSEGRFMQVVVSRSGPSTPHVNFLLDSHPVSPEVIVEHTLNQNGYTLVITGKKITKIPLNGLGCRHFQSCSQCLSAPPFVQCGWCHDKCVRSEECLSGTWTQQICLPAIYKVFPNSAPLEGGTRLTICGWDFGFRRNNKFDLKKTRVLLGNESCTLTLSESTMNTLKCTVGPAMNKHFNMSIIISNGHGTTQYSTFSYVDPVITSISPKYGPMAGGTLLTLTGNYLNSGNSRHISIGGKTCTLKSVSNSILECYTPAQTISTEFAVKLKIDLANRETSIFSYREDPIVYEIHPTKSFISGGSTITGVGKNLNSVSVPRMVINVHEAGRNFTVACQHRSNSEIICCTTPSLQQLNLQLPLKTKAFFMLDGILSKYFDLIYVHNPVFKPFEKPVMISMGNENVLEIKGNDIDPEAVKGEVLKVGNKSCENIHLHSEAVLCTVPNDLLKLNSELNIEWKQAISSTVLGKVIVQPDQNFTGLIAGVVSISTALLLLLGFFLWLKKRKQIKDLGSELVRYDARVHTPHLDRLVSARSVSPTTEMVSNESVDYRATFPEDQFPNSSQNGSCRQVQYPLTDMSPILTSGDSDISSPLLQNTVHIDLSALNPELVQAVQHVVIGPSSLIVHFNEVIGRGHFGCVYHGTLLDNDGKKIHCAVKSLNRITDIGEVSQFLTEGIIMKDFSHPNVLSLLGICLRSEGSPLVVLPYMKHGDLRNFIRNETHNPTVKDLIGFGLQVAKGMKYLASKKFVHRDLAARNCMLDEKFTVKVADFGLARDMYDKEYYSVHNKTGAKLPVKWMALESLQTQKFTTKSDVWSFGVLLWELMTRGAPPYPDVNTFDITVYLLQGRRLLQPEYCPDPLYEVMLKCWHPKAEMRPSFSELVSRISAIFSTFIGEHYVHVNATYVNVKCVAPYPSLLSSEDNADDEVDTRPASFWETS

B1: Caveolin 1 (CAV1) (natural protein, UniProt Q03135 1-178, looked up)
chain: MSGGKYVDSEGHLYTVPIREQGNIYKPNNKAMADELSEKQVYDAHTKEIDLVNRDPKHLNDDVVKIDFEDVIAEPEGTHSFDGIWKASFTTFTVTKYWFYRLLSALFGIPMALIWGIYFAILSFLHIWAVVPCIKSFLIEIQCISRVYSIYVHTVCDPLFEAVGKIFSNVRINLQKEI
notes: detected by Western blot with an antibody to CAV1; Endogenous protein; the co-IP blot detects total CAV1; source: endogenous, Mahlavu whole cell lysate
  fold increase in the amount co-immunoprecipitated upon HGF stimulation, against no HGF: ≥ 3 fold
